± gives the uncertainty stated by the source.
Assay: amyloid nucleation score (Sup35N fusion, yeast selection) (log enrichment); library NNK1; higher = more nucleation; inactive = no reads after selection
Outline: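 Peptides of 20 random codons fused to Sup35N were expressed in psi-negative yeast, induced 24 hours with 100 μM copper sulfate, then grown 7 days at 30°C on medium lacking adenine and uracil. Input and output plasmid inserts were Illumina-sequenced. Nucleation score is the DiMSum log enrichment of output over input reads, centred on the mode score of non-aggregating sequences, excluding sequences with under 100 input reads. Random libraries had three technical output replicates.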

Row | Substance | amyloid nucleation score
1 | VSGDPNMRLCAISIATGFVF | -0.468 ± 0.63
2 | LWHEI | 0.427 ± 0.51
3 | MECSASYLYVWKIANTLGRM | 0.637 ± 0.31
4 | SYEVFEIISNCLEY | -0.321 ± 0.35
5 | RWAVLACFCMGD | 0.434 ± 0.81
6 | NLRYSFFFNSDNSRVWECS | 0.682 ± 0.35
7 | ISNWDVLSCMTQDIGVMTLL | -0.092 ± 0.82
8 | DNMSVLYDTTLVFRWIWVEP | inactive
9 | MTHLNPMSFVDPKFVPVDFS | 2.48 ± 0.47
10 | SVKRMWYLDV | -0.483 ± 0.32
11 | RMAHVKHFL | 4.52 ± 0.082
12 | YSAYNRQEDLGLKIVFVLLT | 2.57 ± 0.1
13 | SRTGRH | 0.972 ± 0.93
14 | FTAVK | -0.188 ± 0.46
15 | FWVFLTRKLCYSHGRVLALV | -0.708 ± 1.1
16 | ATFSFGRT | inactive
17 | VVMNLLVLIGYLSSLYFLQA | -1.04 ± 1.9
18 | REDPIALGSRWTRPISKTLG | 0.734 ± 0.97
19 | PSTRRVGDWDFLTSSTGRTM | -0.403 ± 0.35
20 | NMHLTYETDRFARYVNSKFN | 0.744 ± 0.46
21 | RRREKHAMDPELRARGQQ | -0.106 ± 0.73
22 | LTLFEPLMRDCYICSYFNFF | 7.047 ± 0.053
23 | YRPMYMVAEQWYYK | 0.896 ± 0.49
24 | DHSCWGAWWVHFGAHDGGWC | 1.25 ± 0.79
25 | SPFDKIVAHGSRLML | -0.274 ± 0.64

Row | Substance | amyloid nucleation score
26 | WETGIRMFVKCRR | 0.906 ± 0.33
27 | DSSMWFTASLYSYVLLSLNL | 0.73 ± 0.36
28 | VRHDITARERLSGLWQ | -0.047 ± 1.1
29 | LYTLRLGI | -0.134 ± 0.84
30 | GFYDRYVNAGMECAGPSSQR | 5.24 ± 0.079
31 | SVNKSSKVFTELANVHERAL | 0.136 ± 0.66
32 | LGRKFT | 2.05 ± 0.41
33 | VPRVYMFKFGIILFFYMHKA | -0.273 ± 0.3
34 | SNAPFRKAQQRGLYKWWSWR | 0.728 ± 0.54
35 | LSVVVDRVLDNCLIGLYNAG | 0.174 ± 0.28
36 | VVQAVIR | -1.01 ± 1.7
37 | CGKTMGINAGMCSTNWGGPT | 0.263 ± 0.33
38 | DGSVFFKADRVPLRSSNGGI | 1.2 ± 0.52
39 | FWRGDRLVMSFEE | -0.285 ± 0.83
40 | SLRLFEFFWLTFGSSQIHLA | -0.032 ± 0.5
41 | PCWTNSLLKPPVGIR | -0.281 ± 1.1
42 | IWEFSWLYMLKVMRSGFSYN | -0.282 ± 0.44
43 | SYVYHPTSRLVWIIRMIT | 0.5 ± 0.38
44 | AMWYTRRMQVENVKTVLSLM | -0.027 ± 0.34
45 | EGRSWLGTESGLYGNVREND | 0.577 ± 0.68
46 | LVFFHISR | 4.94 ± 0.1
47 | PGRFLGLNSMTALVWY | 0.095 ± 0.37
48 | QRMFFYNIIVWNVN | 2.79 ± 0.14
49 | REEKV | 0.068 ± 0.42
50 | TVKCILYSRFHKGCGWRCER | 3.15 ± 0.14

Row | Substance | amyloid nucleation score
51 | VIVQKSLS | -0.086 ± 0.61
52 | DNIYIYIPVTYFCATLRMWR | 5.09 ± 0.071
53 | EVSLLSFLE | 0.68 ± 0.39
54 | LTYLMWRRYSNIFQTSCSCL | 0.499 ± 0.59
55 | SYECVQNRQCAIGGNRSERF | 0.666 ± 0.93
56 | YIAVGV | 0.015 ± 0.62
57 | VIYFLRYHLFNSLVSPHNRR | inactive
58 | HMRMGLGRLVHLWYWPTRDT | 0.153 ± 0.56
59 | FKPEKRLGATG | 0.694 ± 0.45
60 | IRLTILLSKVDTDE | 0.885 ± 0.42
61 | DTLPRFRSRNSIVRNLSKNG | inactive
62 | CWDLTTVCHNFNRYHSWVSR | 0.431 ± 1.1
63 | YNVKSVCGRAPIGVMGRKWG | 0.618 ± 0.52
64 | MNCLTSRILNVLIGSGCN | 3.33 ± 0.076
65 | ASRRSSHHSGRMHRAQLSGF | -1.5 ± 1.8
66 | LKRVCNS | 0.002 ± 0.63
67 | YAYMVLVVPRDSVLEESECR | -0.087 ± 0.78
68 | RRSESGKCFDLLSSSLSVIN | -0.786 ± 0.73
69 | IGKSCFIFVTG | 0.56 ± 0.43
70 | HALEKLDKFRFTAS | 0.484 ± 0.64
71 | WFNWVCCNGNAWIKDRF | 7.66 ± 0.054
72 | PFSAWYNNNTLTYSIDCINF | 0.58 ± 0.19
73 | SYAMLCIYVGYFIFLNSRMS | inactive
74 | PMSKV | inactive
75 | SWEQMSYASSFISNVGRHKG | 1.34 ± 0.2

Row | Substance | amyloid nucleation score
76 | VNRYEVPLLGRRHDCEFSRT | -0.806 ± 1.1
77 | HFVAVFMFYGWPSWYSYSES | -0.93 ± 0.35
78 | SGGSEELLRVVMVSSMKGPW | -0.254 ± 0.81
79 | LSRTKGKAQCLGQVGRMRVL | 0.294 ± 0.54
80 | MDSFVITSFSYNTSLTMRIL | 1.4 ± 0.42
81 | GTMTRWWFVVCTEKTAGTNR | 0.374 ± 0.44
82 | LHGPVFYKFACVVASPWGSI | -0.235 ± 0.41
83 | RAVVW | 0.695 ± 0.8
84 | LIKGWSYPGVPCVGLLMDGK | 0.27 ± 0.33
85 | VGLINHYSSSNMLG | 0.161 ± 0.62
86 | NSLLGYLYSYVVFYREHIVI | -0.326 ± 1.2
87 | ASLVDVGSP | 0.215 ± 0.32
88 | TEAMTGYVLNNNWYSQLYVF | -0.601 ± 1.1
89 | AKVRKNYTFLHLSPLGRGFD | 0.321 ± 0.48
90 | GSSKWISSHRVIDDFSYKRG | 0.406 ± 0.49
91 | HCWFRSWPWTISK | -0.913 ± 1.5
92 | IEIKTIFVSFLFCECKFCGY | 5.63 ± 0.057
93 | MSNIVALHCGSFFTDYECIW | 7.608 ± 0.046
94 | MMGNNQRSPYDMDREASITF | 0.64 ± 0.43
95 | GETRVLHDKVGRKFGLCKDF | 0.32 ± 0.41
96 | LGSGQGVNLSALPRFEYACR | 0.527 ± 0.44
97 | SHVGSYSWVCSRLARIGCER | -0.703 ± 0.46
98 | KFLLNRVLTDMDLYT | 0.135 ± 0.37
99 | WGCRV | -0.451 ± 0.58
100 | LSDRVFSVTTQGPCDSIFLS | -0.792 ± 0.61

Row | Substance | amyloid nucleation score
101 | PERVVYANATAYRLLVKDAL | 0.247 ± 0.33
102 | TSCSLYIVMRCVWCIYRGAR | -0.866 ± 2.4
103 | AYVDAL | 1.53 ± 0.48
104 | ATHKNWIKRDTVHSLDGC | 0.041 ± 0.26
105 | HNYVGDTLGVMSCWPTTRFP | 0.087 ± 0.87
106 | YNTRTRILWARVVNRVINLW | 4.95 ± 0.072
107 | HRFDW | 1.07 ± 0.48
108 | SGWIKIFG | -0.293 ± 0.66
109 | YSECQLSRARD | inactive
110 | KVTMRWV | 2.21 ± 0.27
111 | KVKNRAFWPHMSLTYAMVPP | 0.333 ± 0.39
112 | TIATLFIFRDLFNFECLNSH | 4.61 ± 0.1
113 | AKYPMQRLLRFLFLVVR | 0.374 ± 0.48
114 | LARCRWLVKRVCDGNWCCML | 0.569 ± 0.48
115 | CRLKH | 0.123 ± 0.3
116 | GMDLQVMSHCASIHNNS | -0.199 ± 0.37
117 | AEHYPGIVVCLSLCDS | -1.77 ± 2.4
118 | IQLYIYCNMWKVGGKEWRAW | 5.78 ± 0.087
119 | VVLLQLQCHEPFYSPKPQQA | -0.048 ± 0.51
120 | IASVWFRCFHRNRLVWSLRR | 0.214 ± 0.44
121 | DWLVRGVFPYVGMLDIALTY | 0.356 ± 0.72
122 | YRICVKSSVQAGRLMFKVTG | -1.61 ± 2.7
123 | VRCIVTERLTLAMDW | 0.199 ± 0.47
124 | RSRNSPTR | -0.027 ± 0.37
125 | ISHKQITTDSSNTVRVYGGN | -0.122 ± 1.6

Row | Substance | amyloid nucleation score
126 | WFGLQYMSWVSIESYGQAAW | 0.875 ± 0.97
127 | IQTCCHIQVELV | 3.79 ± 0.088
128 | SQMLELVFK | 0.818 ± 0.75
129 | VNKHL | -0.329 ± 0.36
130 | GFSVLCRSRPQGSTGVQIRV | -0.788 ± 0.86
131 | ACWYLKRFLIMGKLSWS | -0.15 ± 0.3
132 | AAVMCAIDLIGLNFGLGNWK | 7.816 ± 0.052
133 | HAGFGFVSSCCYLHWLTGDR | 3.98 ± 0.095
134 | EAFRLCGLVRACVAFCG | 0.116 ± 0.3
135 | GMAHDWSRQWVRVSDAVLLR | -0.004 ± 0.6
136 | SRRNYWVFGGHMFND | -0.134 ± 1.7
137 | KEDIVLACIGSVKHVRAQWR | 5.97 ± 0.081
138 | SFLSVFAMFYVQLPCHNMVS | -0.15 ± 0.64
139 | ISSQFGAKTIFPRSVPPQAI | -0.562 ± 0.35
140 | QSPISDCSGQSSCRMCQRYG | 0.408 ± 0.2
141 | AMPYCGK | 0.575 ± 0.36
142 | VLLADVCLSVERGKVTDPGS | 1.25 ± 0.58
143 | FKRSLRCLYVVACNALYWDA | -0.026 ± 0.51
144 | CHTTKNYVYCVCMQFVTHQ | 6.725 ± 0.045
145 | NYMSMWTV | 0.324 ± 0.9
146 | DFHTITGMANFTLSLCYSHK | -0.945 ± 1.4
147 | TSTVVFFKFYLTKFWISVPT | 1.28 ± 0.36
148 | NTHSPSFGFAMIRSGDTEKF | inactive
149 | SQVGYGSRDLEFTWWCGGNG | -0.278 ± 0.58
150 | DVAARVQKNCPVIIGAIRSK | 0.091 ± 1.6

Row | Substance | amyloid nucleation score
151 | ILKDVFIITVISSCSITSKL | 2.37 ± 0.18
152 | CSYLSLRRKCVDTQFLYDMM | -0.199 ± 0.47
153 | VKYGDSRLADAWNFVSNK | -0.476 ± 0.3
154 | VYNLFVEVVPILKNRLWFNY | 4.44 ± 0.094
155 | SVLSSLVSEISGVVCLVLGH | -0.214 ± 0.57
156 | PCMFYWTVLGRLRTKPPSGV | -0.153 ± 0.44
157 | AVFLY | -0.153 ± 0.33
158 | QVNVN | 0.19 ± 0.5
159 | RRRCYVVSCCLVALACLACF | 0.412 ± 0.8
160 | SRLATQTRLKMAGSISLFRS | -0.208 ± 1.2
161 | HYSNVKTGGKSGKWEIRDLE | -0.559 ± 0.35
162 | GDVFVYSDDWGDGVNGSGGR | -1.96 ± 2.4
163 | CDGLLYELRSVEWGKGKLNG | 0.438 ± 0.38
164 | YVSVVCLFVPDKFRNVTDL | 6.87 ± 0.073
165 | VRCCGPFRACIVLLAITKDG | -0.393 ± 1.4
166 | NQVENTWCMSLRLFSYSHTL | 7.548 ± 0.058
167 | NNSLKCCLFLMSNLKSSRVN | 6.08 ± 0.066
168 | LVWVS | 0.134 ± 0.65
169 | NFSFLGFLSRYGCLFQVSS | 0.582 ± 0.6
170 | VLGRRKMIQVNFNFKYLSWD | 1.62 ± 0.45
171 | AMLLLTCGL | 0.481 ± 0.74
172 | GWIGCHDWGLRLIAHKMRGR | 0.938 ± 0.88
